Source: article PMC2289895 (The Journal of Cell Biology, 1991)

Biological target: the molecule itself
Assay: SEC + co-IP

B1: NH2 epitope-tagged SIS1 (amino-terminal-tagged SIS1 protein) (natural protein)
chain: MVKETKLYDLLGVSPSANEQELKKGYRKAALKYHPDKPTGDTEKFKEISEAFEILNDPQKREIYDQYGLEAARSGGPSFGPGGPGGAGGAGGFPGGAGGFSGGHAFSNEDAFNIFSQFFGGSSPFGGADDSGFSFSSYPSGGGAGMGGMPGGMGGMHGGMGGMPGGFRSASSSPTYPEEETVQVNLPVSLEDLFVGKKKSFKIGRKGPHGASEKTQIDIQLKPGWKAGTKITYKNQGDYNPQTGRRKTLQFVIQEKSHPNFKRDGDDLIYTLPLSFKESLLGFSKTIQTIDGRTLPLSRVQPVQPSQTSTYPGQGMPTPKNPSQRGNLIVKYKVDYPISLNDAQKRAIDENF
- stoichiometry N: 2
